Key:
Type in all cases: cell-based, human
[1] = system: AICDA, BLIMP-1, RAG expression; experiment: Quantitative RT-PCR of AICDA, BLIMP-1 and RAG mRNA in immunized PBMCs
Method: Quantitative RT-PCR was carried out with a BioRad iCycler and the 2-(ΔΔCT) method was used to calculate relative mRNA expression levels normalized to GAPDH.
AID is known to be involved in B cell affinity maturation by inducing hyper-mutation in antibody genes. Expression of BLIMP-1 represents the proliferation and differentiation of active B cell. To test the effect of TLR agonists on the expression of AID, mRNA levels of AICDA (that encoding AID) after treatment with the synthesized TLR7/8 agonist (500 nM), in comparison with that of CD40L (55 nM), was determined by quantitative RT-PCR. PBMCs were collected from two different donors (see FIG. 8, donor 3 and donor 4). […]
To test the effect of TLR7 agonist imiquimod on the expression of AICDA and BLIMP-1, mRNA levels of AICDA and BLIMP-1 after IVI in the presence of the TLR7 agonist imiquimod (500 nM), was determined by quantitative RT-PCR, in comparison with that of CD40L (FIG. 9). […]
AICDA, RAG gene expression of the harvested cells was also measured by RT-qPCR analysis respectively. […] Data are expressed as means±SEM of triplicate independent samples (****P<0.0001, **P<0.001, by 1-way ANOVA with Sidak's multiple comparisons test).

PBMCs = experiment: In vitro immunization (IVI) of PBMCs, antigen-specific IgG/IgM production by ELISA; settings: for IgG production compared with Basic alone / IgM production compared with Basic alone: FIG. 19; for antigen specificity of antibody production (anti-OVA IgG vs anti-OVA IgM and anti-BSA IgG): basic + OVA, 14 days, FIGS. 20A-20C
Method: PBMCs were washed and diluted with PIV culture medium. Cell density was adjusted to 1*10^^7 cells/ml, treateder with 0.25 mM LLME for about 20 min. Discarded supernatant, and re-suspended cell with PIV culture medium. Adjusted cell density to 9*10^^5 cells/ml. […] Cultured the tissue for 7 days at 37° C., 5% CO2. Changed half of the medium and added factor cocktail on day 7. Cultured the cells for 7-21 days at 37° C., 5% CO2. Collected the supernatant on day 7, day 14, or day 21 for analysis of antibody production by ELISA, whereas the pellets are used for testing gene expression by PCR or RT-PCR. The collected cells were also tested in ELISpot assay for FACS analysis.
Exemplary IVI steps with addition of stimulate factors: • 1. Prepared PBMCs and treat them with LLME. • 2. […] Collected the cells and plate them into 96-well plate at a density of 6*10^4/well. • 4. […] The IgG and IgM level was examined with ELISA assay.
After day7 or day14 with addition of cytokines or antibody-enhancing composition and antigens, supernatants were harvested and added to antigen OVA-coated plates. After 2 hr incubation, a HRP-conjugated anti-human IgG or anti-human IgM was added, the amount of antigen-specific antibody was measured using TMB as substrate. The data represents the mean of 2 replicates; error bars represent SD. One representative data of 3 separate experiments is shown.
Plates were coated with antigen at 5 μg/ml overnight at 4° C. and washed them in PBST (containing 0.5% Tween-20). The plates were blocked with 5% BSA before addition of cell culture supernatants and horseradish peroxidase (HRP)-conjugated detection antibodies (dilutions: 1 in 2,500 for HRP-conjugated IgG-specific antibody (Jackson) and HRP-conjugated IgM-specific antibody. TMB substrates solution was used for measurement. […]
To further test effects of other cytokine or molecules on antibody production, a synthesized TLR7/8 agonist (50 nM and 500 nM) was added to the IVI system in the presence of antigen OVA (2 μg/ml).
An exemplary cytokine, IL1β, was tested. PBMCs were incubated in vitro with OVA, basic, and either some of the known stimulating factors ICOS, CD40L, TLR7/8 agonists or IL1β (in different doses) (1.5*10^^5 cell/well, 96 well plate). After 7 or 14 days, supernatants were harvested, and IgG/IgM antibody production was measured by ELISA assay.

[2] = system: GC like B cells within PBMCs; experiment: FACS analysis of GC like B cells (CD3-CD19+GL7+Fas+) after in vitro immunization
Method: We analyzed stained cells on an […] (BD) and processed flow cytometry data with FlowJo software (Tree Star). PBMCs were collected into Snap-lock microtubes. For analysis of T cells or B cells, tubes were kept at 4° C. unless mentioned otherwise. After centrifugation, cells were washed and resuspended in PBS. For analysis of T follicular helper cells, PBMCs were stained with antibodies of CD3−FITC (BD), CD4− PerCP−Cy™5.5 (BD), CXCR5−PE/Cy7 (Biolegend), and CD45RA-PE(eBioscience), respectively. T follicular helper cells were identified with CD3^+CD4^+CXCR5^+CD45RA^−. For analysis of GC like B-cells, PBMC was stained with antibodies of CD19-PE (eBioscience), GL7− Alexa Fluor 488 (eBioscience), Fas-APC (eBioscience). GC like B-cells were defined as CD19^+GL7^+Fas^+.
After FACS sorting, GC like B cells are gated as CD3^−, CD19^+, GL7^+, Fas^+ cells. Numbers within the gates represent the GC like B cells of different groups. […] The ratio of GC like B cells is about 85.25% (FIG. 5B). Similarly, the PBMCs treated with ICOS. The ratio of GC like B cells is about 90.42% (FIG. 5C).
In the same way, PBMCs were incubated in vitro with OVA, basic, and CCL1 (1 μg/ml). After 7 days, cells were harvested, and single cell is sorting with CD19, CD3, GL7, FAS antibody as specific markers, dead cells are excluded by staining with DAPI. GC like B cells are gated as CD3−CD19+GL7+Fas+ cells. […]

CC(C)Cn1cnc2c(N)nc3ccccc3c21 [imiquimod, reference compound]
expression of AICDA and BLIMP-1 compared with CD40L ([1]; OVA, basic, agonist 500 nM, FIG. 8 and FIG. 9): far superior to CD40L

CXCL2: Human C-X-C motif chemokine 2
IgG production compared with Basic alone (PBMCs; in vitro for 14 days, OVA): better than Basic alone

CXCL5: Human C-X-C motif chemokine 5
IgG production compared with known stimulating factors (PBMCs; CXCL5 20 ng/ml, in vitro for 14 days): inferior to TLR7/8 agonist but better than ICOS and CD40L
antigen specificity of antibody production (anti-OVA IgG vs anti-OVA IgM and anti-BSA IgG) (PBMCs): similarly stimulate the activation of OVA-specific B cells
IgG production, dose relation (PBMCs; in vitro for 14 days, OVA, basic, FIG. 18): dose-dependent

IL1β: Human interleukin-1 beta, adipose tissue-derived secretory protein
antigen specificity of antibody production (anti-OVA IgG vs anti-OVA IgM and anti-BSA IgG) (PBMCs): promotes generation of anti-OVA IgG in a high level

IL21: interleukin-21, cytokine; part of 'basic' medium at 50 ng/ml
production of anti-TrkA antibody IgG / IgM by individual stimulants (PBMCs; antigen TrkA, individual stimulants, day 7, IL21 50 ng/ml): stimulated the production of antibody IgG but not IgM

B1: CD40L: CD154, CD40 Ligand protein (protein, UniProt P29965 113-261, looked up)
CD40 ligand, soluble form: MQKGDQNPQIAAHVISEASSKTTSVLQWAEKGYYTMSNNLVTLENGKQLTVKRQGLYYIYAQVTFCSNREASSQAPFIASLCLKSPGRFERILLRAANTHSSAKPCGQQSIHLGGVFELQPGASVFVNVTDPSQVSHGTGFTSFGLLKL
regulation of IgG and IgM responses with dose (PBMCs; ICOS 24-100 nM, CD40L 10-55 nM, TLR7/8 agonist 0.1-500 nM, OVA, IL2, IL21): dose-dependent manner
IgG production on co-stimulation with IL2 and IL21 (PBMCs; OVA 4 ug/ml, IL2 10 ng/ml, IL21 50 ng/ml, 24 nM ICOS, 55 nM CD40L, 500 nM TLR7/8 agonist, 7 or 14 days): synergistic, complimentary effects on enhanced IgG production
ratio of GC like B cells ([2]; antigen OVA 2 μg/ml, IL2 10 ng/ml + IL21 50 ng/ml (basic), sorted on day 14): about 85.25%

B2: CCL8: Human chemokine (C-C motif) ligand 8 (protein, UniProt P80075 24-99, looked up)
C-C motif chemokine 8: QPDSVSIPITCCFNVINRKIPIQRLESYTRITNIQCPKEAVIFKTKRGKEVCADPKERWVRDSMKHLDQIFQNLKP
IgG production compared with known stimulating factors (PBMCs; OVA, basic, FIG. 17): inferior to TLR7/8 agonist but better than ICOS and CD40L
antigen specificity of antibody production (anti-OVA IgG vs anti-OVA IgM and anti-BSA IgG) (PBMCs): similarly stimulate the activation of OVA-specific B cells

B3: CCL4: Recombinant Human C-C motif chemokine 4 (protein, UniProt P13236 24-92, looked up)
C-C motif chemokine 4: APMGSDPPTACCFSYTARKLPRNFVVDYYETSSLCSQPAVVFQTKRSKQVCADPSESWVQEYVYDLELN
IgG production compared with Basic alone (PBMCs; in vitro for 14 days, OVA): better than Basic alone
IgM production compared with Basic alone (PBMCs; in vitro for 14 days, OVA): better than Basic alone

B4: IL27: Recombinant Human Interleukin 27 (protein, UniProt Q8NEV9 29-243; Q14213 21-229, looked up)
Interleukin-27 subunit alpha: FPRPPGRPQLSLQELRREFTVSLHLARKLLSEVRGQAHRFAESHLPGVNLYLLPLGEQLPDVSLTFQAWRRLSDPERLCFISTTLQPFHALLGGLGTQGRWTNMERMQLWAMRLDLRDLQRHLRFQVLAAGFNLPEEEEEEEEEEEEERKGLLPGALGSALQGPAQVSWPQLLSTYRLLHSLELVLSRAVRELLLLSKAGHSVWPLGFPTLSPQP
Interleukin-27 subunit beta: RKGPPAALTLPRVQCRASRYPIAVDCSWTLPPAPNSTSPVSFIATYRLGMAARGHSWPCLQQTPTSTSCTITDVQLFSMAPYVLNVTAVHPWGSSSSFVPFITEHIIKPDPPEGVRLSPLAERQLQVQWEPPGSWPFPEIFSLKYWIRYKRQGAARFHRVGPIEATSFILRAVRPRARYYVQVAAQDLTDYGELSDWSLPATATMSLGK
IgG production compared with Basic alone (PBMCs; in vitro for 14 days, OVA): better than Basic alone
IgM production compared with Basic alone (PBMCs; in vitro for 14 days, OVA): better than Basic alone

B5: CXCL16: Mouse chemokine (C-X-C motif) ligand 16 (protein, UniProt Q8BSU2 27-246, looked up)
C-X-C motif chemokine 16: NQGSVAGSCSCDRTISSGTQIPQGTLDHIRKYLKAFHRCPFFIRFQLQSKSVCGGSQDQWVRELVDCFERKECGTGHGKSFHHQKHLPQASTQTPEAAEGTPSDTSTPAHSQSTQHSTLPSGALSLNKEHTQPWEMTTLPSGYGLEARPEAEANEKQQDDRQQEAPGAGASTPAWVPVLSLLAIVFFLTAAMAYVLCNRRATQQNSAGLQLWYTPVEPRP
IgG production compared with Basic alone (PBMCs; in vitro for 14 days, OVA): better than Basic alone
IgM production compared with Basic alone (PBMCs; in vitro for 14 days, OVA): better than Basic alone

B6: CXCL13: Recombinant Human chemokine (C-X-C motif) ligand 13 (protein, UniProt O43927 23-109, looked up)
C-X-C motif chemokine 13: VLEVYYTSLRCRCVQESSVFIPRRFIDRIQILPRGNGCPRKEIIVWKKNKSIVCVDPQAEWIQRMMEVLRKRSSSTLPVPVFKRKIP
IgM production compared with Basic alone (PBMCs; in vitro for 14 days, OVA): better than Basic alone

B7: CCL1: Recombinant Human C-C motif chemokine 1 (protein, UniProt P22362 24-96, looked up)
C-C motif chemokine 1: KSMQVPFSRCCFSFAEQEIPLRAILCYRNTSSICSNEGLIFKLKRGKEACALDTVGWVQRHRKMLRHCPSKRK
AICDA and RAG gene expression, CCL1 plus TLR7/8 and basic vs TLR7/8 and basic only ([1]; 7 days, RT-qPCR, FIGS. 25B-25C): increased expression level of AICDA and RAG genes
antigen-specific antibody production, CCL1 plus TLR7/8 agonists and basic vs TLR7/8 agonists and basic only (PBMCs; R848 1 μg/ml, 7 days, FIG. 25A): significantly increased
GL7+FAS+ cell ratio, CCL1 plus TLR7/8 and basic vs TLR7/8 and basic only ([2]; 7 days, FIG. 25D): increases

Reference: patent US20240043514A1, “NOVEL METHOD FOR PRODUCING ANTIBODIES” (TSINGHUA UNIVERSITY, priority 2017, published 2024)
